The values that follow are results of earlier work, collected in PMC4426885.

A value given as a limit tells only on which side of the number the result lay.

For data set [1], the target named is vinculin tail (Homo sapiens) (UniProt P18206).
Data set [2] addresses vinculin D1 (Homo sapiens) (UniProt P18206).
The target of data set [3] is vinculin (Homo sapiens) (UniProt P18206).

By Kd is commonly meant the constant that tells how readily two partners part at equilibrium. Take vinculin head (from UniProt P18206): in data set [1], the Kd was < 1 nM.

Consider “alpha-actinin peptide vinculin-binding site (from UniProt P12814)”, for which the Kd in data set [2] and in data set [3] was 2 nM in each case.
